Assays:
Settings in all cases: both partners purified
σR (residues 5-227) = target: T1, σR (residues 5-227) (Streptomyces coelicolor, UniProt Q7AKG9 5-227); assay: ITC; with zinc (+), RsrA preincubated with 1 mM ZnCl2 and buffer exchanged; direct titration for weaker binding mutants (methods: 10 μM RsrA in the cell, 100 μM σR in the syringe); 35 °C, 50 mM Tris pH 7.5, 100 mM NaCl, 2 mM DTT; single binding site model
T1 construct: ECF sigma factor σR (SigR) of Streptomyces coelicolor; residues 5-227 subcloned into pET21a with a C-terminal stop codon for tagless expression; also called sigma factor σR; SigR; source: E. coli BL21(DE3), purified without tags (ammonium sulfate precipitation, Q-Sepharose, Hi-Load S75)

σR Trp88Ile Trp119Ile = target: T2, σR Trp88Ile Trp119Ile (Streptomyces coelicolor, UniProt Q7AKG9 5-227, Trp88Ile | Trp119Ile); assay: ITC; competition ITC as for the wild-type complex (Figure 3a): RsrAred.Zn2+ (100 μM) titrated into σR (10 μM, cell) in the presence of 50 μM weak competitor RsrA* Cys11Ser Cys44Ser; 35 °C, 50 mM Tris pH 7.5, 100 mM NaCl, 2 mM DTT
T2 construct: ECF sigma factor σR (SigR) of Streptomyces coelicolor; mutant of the tagless construct of residues 5-227 (all σR mutants were similarly purified); The limits are those of the wild-type construct; source: E. coli BL21(DE3), purified as wild-type σR

[1] = target: T3, σ^R (sigma factor SigR) from Streptomyces coelicolor, residues 5-227, tagless (Streptomyces coelicolor, UniProt Q7AKG9 5-227); assay: stopped-flow tryptophan fluorescence; dissociation by competition, with zinc: 2.5 μM complex mixed with 25 μM σ^R Trp88Ile Trp119Ile (10-fold excess); 25 or 35 °C, 50 mM Tris pH 7.5, 100 mM NaCl
T3 construct: ECF sigma factor σ^R (SigR) of Streptomyces coelicolor, residues 5-227 subcloned into pET21a (NdeI, BamHI) with a C-terminal stop codon; also called wild-type σ^R; source: E. coli BL21(DE3), pET21a, purified without tags (ammonium sulfate, Q-Sepharose, Hi-Load S75)

σ^R Trp88Ile Trp119Ile = target: T4, σ^R Trp88Ile Trp119Ile (Streptomyces coelicolor, UniProt Q7AKG9 5-227, Trp88Ile | Trp119Ile); assay: as above
T4 construct: ECF sigma factor σ^R (SigR) of Streptomyces coelicolor; both tryptophans replaced; The limits 5-227 are those stated for the tagless wild-type construct; source: E. coli BL21(DE3), purified as wild-type σ^R ("All σ^R mutants were similarly purified")

Binder	Kd (σR (residues 5-227))	other results
RsrA* C11H C41H C44H (natural protein, Streptomyces coelicolor, UniProt Q7AKG8 1-105, looked up, also called RsrA* Cys11His Cys41His Cys44His; source: E. coli BL21(DE3) pLysS, purified by a His-tag that was removed by thrombin; not shown: His tag, N-terminal, cleaved) MSAGEPHETDHSEILDHLYEFLDKEMPDSDAVKFEHHFEEHSPHLEKYGLEQAVKKLVKRAAGQDDVPGDLRAKVMGRLDLIRSGQSVPEHDVAAAPSSSAPQES	305 nM	
RsrA V54A L57A (natural protein, Streptomyces coelicolor, UniProt Q7AKG8 1-105, looked up, also called RsrA Val54Ala Leu57Ala; source: E. coli BL21(DE3) pLysS, purified by a His-tag that was removed by thrombin; not shown: His tag, N-terminal, cleaved) MSCGEPHETDCSEILDHLYEFLDKEMPDSDCVKFEHHFEECSPCLEKYGLEQAAKKAVKRCCGQDDVPGDLRAKVMGRLDLIRSGQSVPEHDVAAAPSSSAPQES	105 nM	
RsrA* C11S C44S (natural protein, Streptomyces coelicolor, UniProt Q7AKG8 1-105, looked up, also called RsrA* Cys11Ser Cys44Ser; source: E. coli BL21(DE3) pLysS, purified by a His-tag that was removed by thrombin; not shown: His tag, N-terminal, cleaved) MSAGEPHETDSSEILDHLYEFLDKEMPDSDAVKFEHHFEECSPSLEKYGLEQAVKKLVKRAAGQDDVPGDLRAKVMGRLDLIRSGQSVPEHDVAAAPSSSAPQES		binding result (σR Trp88Ile Trp119Ile): binds
RsrA* Cys11His Cys41His Cys44His (natural protein, Streptomyces coelicolor, UniProt Q7AKG8 1-105, looked up, Non-oxidative control; also called triple mutant; RsrA*^red.Zn^2+ Cys11His Cys41His Cys44His; source: E. coli BL21(DE3) pLysS, purified using a His-tag that was removed by thrombin cleavage; not shown: His-tag, N-terminal, cleaved) MSAGEPHETDHSEILDHLYEFLDKEMPDSDAVKFEHHFEEHSPHLEKYGLEQAVKKLVKRAAGQDDVPGDLRAKVMGRLDLIRSGQSVPEHDVAAAPSSSAPQES		koff [1]: ~2.3 s⁻¹; binding result (σ^R Trp88Ile Trp119Ile): binds
RsrA* C41S C44S (natural protein, Streptomyces coelicolor, UniProt Q7AKG8 1-105, looked up, source: E. coli BL21(DE3) pLysS, purified by a His-tag that was removed by thrombin; not shown: His tag, N-terminal, cleaved) MSAGEPHETDCSEILDHLYEFLDKEMPDSDAVKFEHHFEESSPSLEKYGLEQAVKKLVKRAAGQDDVPGDLRAKVMGRLDLIRSGQSVPEHDVAAAPSSSAPQES	297 nM	
RsrA V75A L79A (natural protein, Streptomyces coelicolor, UniProt Q7AKG8 1-105, looked up, also called RsrA Val75Ala Leu79Ala; source: E. coli BL21(DE3) pLysS, purified by a His-tag that was removed by thrombin; not shown: His tag, N-terminal, cleaved) MSCGEPHETDCSEILDHLYEFLDKEMPDSDCVKFEHHFEECSPCLEKYGLEQAVKKLVKRCCGQDDVPGDLRAKAMGRADLIRSGQSVPEHDVAAAPSSSAPQES	82.1 nM	
RsrA* C11S (natural protein, Streptomyces coelicolor, UniProt Q7AKG8 1-105, looked up, source: E. coli BL21(DE3) pLysS, purified by a His-tag that was removed by thrombin; not shown: His tag, N-terminal, cleaved) MSAGEPHETDSSEILDHLYEFLDKEMPDSDAVKFEHHFEECSPCLEKYGLEQAVKKLVKRAAGQDDVPGDLRAKVMGRLDLIRSGQSVPEHDVAAAPSSSAPQES	79 nM	
RsrA* Cys11His (natural protein, Streptomyces coelicolor, UniProt Q7AKG8 1-105, looked up, The complex with σ^R analysed by native MS has a theoretical mass of 40,128.08 Da, which may mean that tags were present in that sample; also called RsrA*^red.Zn^2+ Cys11His; source: E. coli BL21(DE3) pLysS, purified using a His-tag that was removed by thrombin cleavage; not shown: His-tag, N-terminal, cleaved) MSAGEPHETDHSEILDHLYEFLDKEMPDSDAVKFEHHFEECSPCLEKYGLEQAVKKLVKRAAGQDDVPGDLRAKVMGRLDLIRSGQSVPEHDVAAAPSSSAPQES		koff [1]: 0.064 s⁻¹; binding result (σ^R Trp88Ile Trp119Ile): binds

Reference: paper PMC4960319, “The anti-sigma factor RsrA responds to oxidative stress by reburying its hydrophobic core” (Nature Communications, 2016)
